{"source": "paper PMC3321547", "about": "(Biochemistry, 2009)", "binders": {"B1": {"name": "NF910-952 (non-fusion kinesin tail peptide, residues 910-952) (peptide)", "chain": "not shown"}, "B2": {"name": "NF910-952mGFP (non-fusion kinesin tail peptide 910-952 with C-terminal mGFP) (domain or fragment)", "chain": "not shown"}, "B3": {"name": "TT910-952mGFP (thioredoxin fusion of kinesin tail residues 910-952 with C-terminal mGFP) (domain or fragment)", "chain": "not shown"}}, "key": {"[1]": {"target": "T1, DKH412 (Drosophila kinesin heavy chain residues 1-412, dimeric head construct) (Drosophila, UniProt P17210 1-412)", "assay": "inhibition of basal steady state ATPase"}, "[2]": {"target": "T1, DKH412 (Drosophila kinesin heavy chain …)", "assay": "inhibition of mADP release from the heads"}, "[3]": {"target": "T1, DKH412 (Drosophila kinesin heavy chain …)", "assay": "inhibition of basal steady state ATPase", "remark": "listed apart in the source"}, "[4]": {"target": "T1, DKH412 (Drosophila kinesin heavy chain …)", "assay": "inhibition of mADP release from the heads", "remark": "listed apart in the source"}, "[5]": {"target": "T1, DKH412 (Drosophila kinesin heavy chain …)", "assay": "FRET or BRET"}, "[6]": {"target": "T1, DKH412 (Drosophila kinesin heavy chain …)", "assay": "co-sedimentation"}}, "note": "Where “and” joins values, the source holds several entries; their conditions need not be identical. Identical values can stand only once."}
{"binder": "AVRQKHLGRRGPQAQIAKPIRSGQGATS (domain or fragment, Drosophila)", "note": "[TT927-952 (thioredoxin fusion of kinesin tail residues 927-952)]", "values": [{"measurement": "Kd", "setting": "[1]", "result": "< 100", "unit": "nM"}]}
{"binder": "B1", "values": [{"measurement": "Kd", "setting": "[2]", "result": 330, "unit": "nM"}, {"measurement": "Kd", "setting": "[3]", "result": 66, "unit": "nM"}, {"measurement": "Kd", "setting": "[4]", "result": 21, "unit": "nM"}, {"measurement": "stoichiometry N", "setting": "[1]", "result": "1 tail peptide per two head peptides"}]}
{"binder": "B2", "values": [{"measurement": "Kd", "setting": "[5]", "result": 400, "unit": "nM"}, {"measurement": "koff", "setting": "[5]", "result": "~32", "unit": "s⁻¹"}, {"measurement": "observed rate of dissociation with a 5-fold excess of unlabelled tail (trace b)", "setting": "[5]", "result": 30.9, "unit": "s⁻¹"}, {"measurement": "observed rate of dissociation with a 20-fold excess of unlabelled tail (trace c)", "setting": "[5]", "result": 32.8, "unit": "s⁻¹"}]}
{"binder": "B3", "values": [{"measurement": "stoichiometry N", "setting": "[6]", "result": "< 0.5 TT910-952mGFP per DKH412 monomer and ~0.5 tail peptide per head peptide"}]}
